Assay: soluble on expression in E. coli; label from the status in PepcDB or PDB records

Sequence | soluble on expression in E. coli
MGSDKIHHHHHHMLDRIIGTASANNWLFFCLFNNKFSGDIDSQRLLNMFRSVIAALLACLSYSAHAVVILQYHHVSEDTPKVTSVIPAQFREQMSYLRENGFKVKPLTHVVEAIKQGRELADKTVAITFDDGYQNIADTAHPILKEFGYPYTIFISIDPIERKHKNVMSWATLKRLSDEGVTLANHSWGHEHLIRRLHGEDEQTWLTRITENLLATEAEIEAKTGQSVKMLAYPYGEYNTAIETLVQKLGFVGFGQQSGAAGGYSSLTALPRFPVAGAYADLTSLKAKLYSLNMPVLALTPRNTQLPLGQWRPEMQVTLDMADIVASQVMCFVQGQGAMKPSWESEDTFSIQAVTDLPPGRSRYNCTAPSKASGRYYWFSQAWVRPKNDGTWVKE | not soluble
SHSKLRIKKEIEPIVSALTFLSQGQSAALNEKGNFSEIKTALNETSHILEESNMMKEQWIRGVSHDLRNPLMLISGYTSQLEQQYGHGKQTEQIENQIQNMKEMISNLNLSYLLDNQKRHSKFSSLDLAVVLRSVIADILNNYETVILHFDLPTEAVLVKGDATLLERAFRNLLLNSIKHSGSNQIDLTYQLFDNKVIIIIADKGTITAQKIVELNQKSTNYESHGMGTVITKQIIKLHQGETVFSDNHPGLKVTIVLPVTDEF | not soluble
MGSDKIHHHHHHVDLMLKSVISYFLPNYCLVCEREIDPNDYLCKDCLTSIRGPIMAPVELLNIDSAHSYWKYESPMKELIRAYKFGDRPGVARLFAKIVFEMIDVFAPSTDVIVPVPTSLQAFIRRGFDTNLRILRHLARTIDIKIDNVLSISGKTVPQSTLKMQDRIDNVRDKFFLRKKPRSTSVILFDDVVTSGATASQCARVLREGGVKEITLLAIASAKK | not soluble
MTEQTFSIREAVPTDADQLLSVMSKIGSETPYLVMDERGMAMSTTELAENLATLYESPNNVLLVALAGEAIIGTASVSASSKKRMEHIGEIGISILKEYWGYGLGSILMEELIRWAHESHVIRRLELTVQDRNQRAIHVYKKLGFETEAIMPRGAKTDQGEFLDVHLMRLLID | not soluble
MGSDKIHHHHHHMITKEDIVADVVTDYPKSADIFRNAGIDFCCGGQESIASAVNHKPNIDLNSLLNKLNHIDNTEGNSTINPKFLNVESLIQYIQSAYHETLKEEFKNLTPYMTKLAKVHGPSHPYLLKLQDLYREFRDSMLDHIRKEDEEDFPKLIQYSQGQDVQNIKIILEDLINDHEDTGQLLNVMNQLTSDYQTPEEACGTWKLVYQRLQNIERQTHQHVHLENHVLFKKVS | not soluble
MAHHHHHHMQEFSTYSLFSRKNETVSGMDENFDNHPENYFKEEYYYDENDDMEVKVKKIGVTLKKFEPLKNGNVSETIKLIHLGNKDKKHIEAINNDIQIIKQELQAIYNELMNYTNGNKNIQQIFQQNILENDVLNQETERQTRSRGGG | soluble
MNFNTILEEILIKRSQQKKKTSPLNYKERLFVLTKSVLSYYEGRAEKKYRKGVIDISKIKCVEIVKNDDGVIPCQNKFPFQVVHDANTLYIFAPSPQSRDRWVKKLKEEIKNNNNIMIKYHPKFWADGSYQCCRQTEKLAPGCEKYNLFESSIRKTLPPAPEIKKRRPPPPIPPEEENTEEIVVAMYDFQATEAHDLRLERGQEYIILEKNDLHWWRARDKYGSEGYIPSNYVTGKKSNNLDQYEWYCRNTNRSKAEQLLRTEDKEGGFMVRDSSQPGLYTVSLYTKFGGEGSSGFRHYHIKETATSPKKYYLAEKHAFGSIPEIIEYHKHNAAGLVTRLRYPVSTKGKNAPTTAGFSYDKWEINPSELTFMRELGSGLFGVVRLGKWRAQYKVAIKAIREGAMCEEDFIEEAKVMMKLTHPKLVQLYGVCTQQKPIYIVTEFMERGCLLNFLRQRQGHFSRDMLLSMCQDVCEGMEYLERNSFIHRDLAARNCLVNEAGVVKVSDFGMARYVLDDQYTSSSGAKFPVKWCPPEVFNYSRFSSKSDVWSFGVLMWEIFTEGRMPFEKNTNYEVVTMVTRGHRLHRPKLASKYLYEVMLRCWQERPEGRPSFEDLLRTIDELVECEETFGR | soluble
GSMAWHLGIRSQSRPNDIMAEVCRAIKQLDYEWKVVNPYYLRVRRKNPVTSTFSKMSLQLYQVDSRTYLLDFRSIDDEITEAKSGTATPQRSGSISNYRSCQRSDSDAEAQGKPSEVSLTSSVTSLDSSPVDVAPRPGSHTIEFFEMCANLIKILAQ | soluble

— the DeepSol protein solubility set
